Results as given in paper PMC8009439.

How the values were obtained:
[1] = target: pyruvate kinase isoform M2 (PKM2), endogenous in immortalized hepatocytes (human (endogenous in NeHepLxHT)) (UniProt P14618); assay: glycerol density gradient centrifugation
[2] = target: pyruvate kinase isoform M2 (PKM2), endogenous in immortalized hepatocytes (human (endogenous in NeHepLxHT)) (UniProt P14618); assay: cross-linking; cell lysate treated with 0.1% glutaraldehyde for 20 minutes at 25°C, stopped with 50 mM Tris pH 8.0, SDS-PAGE and western blot for PKM2; control and LHBS-expressing immortalized hepatocytes, HuH-7 and HepG2 cells infected with Ad-HBV-KO or Ad-HBV-WT

Sequence of pyruvate kinase isoform M2 (PKM2), endogenous in immortalized hepatocytes, P14618 1-531 (enzyme; other documents disagree on this pair) (P14618 whole entry, canonical isoform): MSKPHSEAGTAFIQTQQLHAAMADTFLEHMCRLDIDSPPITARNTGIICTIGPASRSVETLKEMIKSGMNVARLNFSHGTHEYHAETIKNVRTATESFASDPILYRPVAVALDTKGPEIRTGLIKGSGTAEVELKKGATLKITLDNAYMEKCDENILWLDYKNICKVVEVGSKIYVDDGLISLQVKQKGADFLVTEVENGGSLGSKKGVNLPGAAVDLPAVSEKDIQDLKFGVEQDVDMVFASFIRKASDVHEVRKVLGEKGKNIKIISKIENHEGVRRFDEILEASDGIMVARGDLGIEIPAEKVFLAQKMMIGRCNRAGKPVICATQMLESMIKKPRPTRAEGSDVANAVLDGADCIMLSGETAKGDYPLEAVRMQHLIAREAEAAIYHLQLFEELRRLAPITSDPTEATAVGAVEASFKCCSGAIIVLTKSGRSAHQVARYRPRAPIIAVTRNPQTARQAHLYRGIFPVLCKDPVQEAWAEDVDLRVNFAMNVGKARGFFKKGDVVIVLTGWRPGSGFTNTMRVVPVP

## pyruvate kinase isoform M2 (PKM2), endogenous in immortalized hepatocytes, P14618 1-531 (enzyme; other documents disagree on this pair)
[1]
  stoichiometry N: 2
[2]
  stoichiometry N: 2
